Experimental data taken from PMC12582567, “Short heat shock factor A2 regulates heat resistance and growth balance in Arabidopsis”.

B1: 3xHRE probe (dsDNA)
DNA 1: GAAGAAGGAAGAAGGAAGAAG
DNA 2: CTTCTTCCTTCTTCCTTCTTC
B2: HSE probe (dsDNA)
DNA 1: TCGACTTCTAGAAGCTTCCAGAAATTAG
DNA 2: CTAATTTCTGGAAGCTTCTAGAAGTCGA

Assays:
His6-S-HsfA4c = His6-S-HsfA4c (Arabidopsis thaliana Col-0, UniProt J7FXE8 1-102); assay: EMSA; EMSA: LightShift kit 1x binding buffer, 50 ng poly(dI-dC), 2.5% glycerol, 0.05% NP-40, 5 mM MgCl2, 100 ng protein, 1.5 ng probe, 30 min, room temperature; pull-down: 50 mM Tris-HCl pH 7.5, 100 mM NaCl, 0.1% Triton X-100, poly(dI-dC), 25 C; details: protein: recombinant; tags: His6 (pET-28a); label: 5' biotin; blunt
Chain of His6-S-HsfA4c (J7FXE8 entry or part of it): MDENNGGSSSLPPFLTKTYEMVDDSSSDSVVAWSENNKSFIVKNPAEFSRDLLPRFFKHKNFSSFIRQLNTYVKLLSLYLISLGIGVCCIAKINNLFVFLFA

His6-S-HsfB2a = His6-S-HsfB2a (Arabidopsis thaliana Col-0, UniProt J7G5V7 1-85); assay: as above; details: protein: recombinant; tags: His6 (pET-28a); label: 5' biotin; blunt
Chain of His6-S-HsfB2a (J7G5V7 entry or part of it): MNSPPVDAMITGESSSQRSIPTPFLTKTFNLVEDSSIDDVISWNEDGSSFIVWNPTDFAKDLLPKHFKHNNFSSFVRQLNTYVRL

His6-HsfA2 [1] = biological target: T1, His6-HsfA2 (Arabidopsis thaliana Col-0, UniProt O80982 1-345); assay: as above; details: protein: recombinant; tags: His6 (pET-28a); chain copies: 3; label: 5' biotin; blunt
T1 sequence (O80982 whole entry): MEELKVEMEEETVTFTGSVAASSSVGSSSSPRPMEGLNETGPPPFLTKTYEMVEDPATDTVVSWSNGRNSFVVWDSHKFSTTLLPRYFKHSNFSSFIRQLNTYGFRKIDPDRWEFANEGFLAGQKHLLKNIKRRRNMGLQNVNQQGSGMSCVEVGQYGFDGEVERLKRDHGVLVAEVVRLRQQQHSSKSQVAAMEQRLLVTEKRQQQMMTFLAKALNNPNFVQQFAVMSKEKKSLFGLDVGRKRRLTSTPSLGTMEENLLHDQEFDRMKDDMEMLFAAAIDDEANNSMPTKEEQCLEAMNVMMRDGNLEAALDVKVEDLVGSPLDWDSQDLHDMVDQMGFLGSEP

His6-S-HsfB1 = His6-S-HsfB1 (Arabidopsis thaliana Col-0, UniProt J7FYU6 1-86); assay: as above; details: protein: recombinant; tags: His6 (pET-28a); label: 5' biotin; blunt
Chain of His6-S-HsfB1 (J7FYU6 entry or part of it): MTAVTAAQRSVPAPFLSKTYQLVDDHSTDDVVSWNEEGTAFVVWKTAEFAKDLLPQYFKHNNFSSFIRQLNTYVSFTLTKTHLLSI

His6-tDBD = His6-tDBD (Arabidopsis thaliana Col-0, UniProt J7G1E7 42-103); assay: as above; details: protein: recombinant; tags: His6 (pET-28a); label: 5' biotin; blunt
Chain of His6-tDBD (J7G1E7 entry or part of it): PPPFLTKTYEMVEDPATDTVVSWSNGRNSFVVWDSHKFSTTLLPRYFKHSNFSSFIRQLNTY

His6-DBD = His6-DBD (Arabidopsis thaliana Col-0, UniProt O80982 42-135); assay: as above; details: protein: recombinant; tags: His6 (pET-28a); label: 5' biotin; blunt
Chain of His6-DBD (O80982 42-135): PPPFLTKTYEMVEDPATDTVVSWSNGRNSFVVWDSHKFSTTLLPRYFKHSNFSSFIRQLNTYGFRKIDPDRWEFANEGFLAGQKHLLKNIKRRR

His6-HsfA2 [2] = biological target: T1, His6-HsfA2; assay: streptavidin-agarose pull-down; 0 hr prebinding control; EMSA: LightShift kit 1x binding buffer, 50 ng poly(dI-dC), 2.5% glycerol, 0.05% NP-40, 5 mM MgCl2, 100 ng protein, 1.5 ng probe, 30 min, room temperature; pull-down: 50 mM Tris-HCl pH 7.5, 100 mM NaCl, 0.1% Triton X-100, poly(dI-dC), 25 C; details: protein: recombinant; tags: His6 (pET-28a); chain copies: 3; label: 5' biotin; blunt

Binder | binding result (His6-S-HsfA4c) | binding result (His6-S-HsfB2a) | binding result (His6-HsfA2 [1]) | binding result (His6-S-HsfB1) | binding result (His6-tDBD) | binding result (His6-DBD) | binding result (His6-HsfA2 [2])
B1 | binds | no binding | no binding | binds | binds | – | –
B2 | – | – | – | – | – | binds | binds
